Data on one substance can be found in doi:10.1101/2020.10.01.322594.

The assay concerns the target Phaeodactylum tricornutum diaminopimelate decarboxylase (PtLYSA), amino acids 39-476 (Phaeodactylum tricornutum). Briefly: SEC. (In general: In gel filtration, larger molecules generally elute earlier.)

By stoichiometry N is commonly meant a count of units in the complex or per binding partner. “Phaeodactylum tricornutum diaminopimelate decarboxylase (PtLYSA), amino acids 39-476 (enzyme)”: the stoichiometry N was 2.
